The values below come from the supplement of paper PMC9732359.

± gives the uncertainty stated by the source.

This data set is described as follows: protein stability index of a GFP-peptide fusion (yeast GPS) (PSI 1-4); higher = more stable; sorted into four equal gates, so the index is relative within each strain. Summed up: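 Peptides tiling yeast proteins in 17-residue segments were fused downstream of GFP, with Cherry expressed from the same plasmid. As a pooled library in yeast, mid-log cultures grown in leucine-free medium were sorted into four equal gates by GFP/Cherry fluorescence ratio. Gate plasmids were PCR-amplified and Illumina-sequenced, and barcodes linked reads to strains. Each peptide received a protein stability index equal to the sum of each gate's read frequency times its gate number.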

On to LKSAIRDEIAKNTELSY [RPN12], for which the protein stability index reads like this: (doa10∆) 1.41 ± 0.058; (pdr5∆) 2.16 ± 0.1; (san1∆) 1.51 ± 0.097; (ubr1∆) 2.46 ± 0.056.

Turning to IVACELILSGDTTANNG [YJL039C/NUP192], the protein stability index is 2.66 ± 0.067 (doa10∆), 2.46 ± 0.068 (pdr5∆), 2 ± 0.077 (san1∆) and 1.7 ± 0.032 (ubr1∆).

YLAKLSKQLSLEEKKKR [IRR1] had a protein stability index (doa10∆) of 2.65 ± 0.098, a protein stability index (pdr5∆) of 2.75 ± 0.085, a protein stability index (san1∆) of 2.44 ± 0.11 and a protein stability index (ubr1∆) of 2.86 ± 0.085.

With GGLRPFGVSFIYAGYDD [PRE9], the protein stability index worked out at 2.44 ± 0.08 (doa10∆), 2.52 ± 0.075 (pdr5∆), 2.26 ± 0.11 (san1∆) and 2.27 ± 0.083 (ubr1∆).

NTLGKGQNCLDIDGIMD [SNU114]: the protein stability index was determined as 3.3 ± 0.23 (doa10∆), 3.15 ± 0.1 (pdr5∆), 3.02 ± 0.12 (san1∆) and 3.2 ± 0.11 (ubr1∆).

With GRNLGRIGTIVHKERHD [RPS4A], the protein stability index runs as follows: (doa10∆) 2.42 ± 0.13; (pdr5∆) 2.03 ± 0.098; (san1∆) 2.5 ± 0.059; (ubr1∆) 2.63 ± 0.061.

For the sequence ATNANATTDQEGDIHLE [PRE10], the protein stability index amounted to 3.35 ± 0.23 (doa10∆), 3.39 ± 0.14 (pdr5∆), 3.33 ± 0.036 (san1∆) and 3.11 ± 0.12 (ubr1∆).

As for NGTMINEVIDKLKNENT [PCI8], the protein stability index was 2.84 ± 0.056 (doa10∆), 2.91 ± 0.052 (pdr5∆), 2.84 ± 0.047 (san1∆) and 3.09 ± 0.037 (ubr1∆).

The sequence VSKMEKAEKTLKSTKHS [SMC4] yielded a protein stability index (doa10∆) of 2.69 ± 0.052, a protein stability index (pdr5∆) of 2.42 ± 0.044, a protein stability index (san1∆) of 2.33 ± 0.042 and a protein stability index (ubr1∆) of 2.83 ± 0.031.

On to EKPLILADYIVEVLLVN [NUT1], for which the protein stability index by setting is: (doa10∆) 1.91 ± 0.047; (pdr5∆) 1.49 ± 0.039; (san1∆) 1.65 ± 0.17; (ubr1∆) 1.32 ± 0.039.

On to SLEENAMSTVTLGVVGK [SKI6], for which the protein stability index amounted to 3.22 ± 0.16 (doa10∆), 3.21 ± 0.14 (pdr5∆), 3.04 ± 0.099 (san1∆) and 2.72 ± 0.11 (ubr1∆).

Take TSAASGDAAPAEEAAAE [RPP0]: the protein stability index is, setting by setting: (pdr5∆) 3.44 ± 0.13; (san1∆) 3.13 ± 0.14; (ubr1∆) 3.34 ± 0.11.

Take TITIKSYHLWPSFTDEQ [PRP8]: the protein stability index is 2.32 ± 0.057 (doa10∆), 2.81 ± 0.061 (pdr5∆), 2.41 ± 0.073 (san1∆) and 2.51 ± 0.047 (ubr1∆).

For TRDVEPENLQVTSEKYP [BRR2], the protein stability index runs as follows: (doa10∆) 2.75 ± 0.1; (pdr5∆) 3.35 ± 0.18; (ubr1∆) 3.13 ± 0.11.

For the sequence KTSLMDLLVIDSHKRIP [SNU114], the protein stability index is, setting by setting: (doa10∆) 2.43 ± 0.069; (pdr5∆) 2.73 ± 0.078; (san1∆) 2.74 ± 0.063; (ubr1∆) 2.41 ± 0.054.

For FAAKQRQELQMQRQQQG [SNF2], the protein stability index by setting is: (doa10∆) 2.66 ± 0.052; (pdr5∆) 2.84 ± 0.046; (san1∆) 2.71 ± 0.038; (ubr1∆) 2.7 ± 0.045.

On to ILTKEVQGSTLAQLTSK [RPS1A], for which the protein stability index (doa10∆) amounted to 3.27 ± 0.084, the protein stability index (pdr5∆) was determined as 3 ± 0.08, the protein stability index (san1∆) worked out at 3.2 ± 0.072 and the protein stability index (ubr1∆) amounted to 2.93 ± 0.15.

Take QSLDTIGGSDAAFEKRY [RPO21]: the protein stability index by setting is: (doa10∆) 3.25 ± 0.095; (pdr5∆) 3.38 ± 0.074; (san1∆) 3.37 ± 0.049; (ubr1∆) 3.25 ± 0.06.

On to SYQKLLKNYVLNELHPT [PRP8], for which the protein stability index (doa10∆) is 1.62 ± 0.039, the protein stability index (pdr5∆) is 1.57 ± 0.034, the protein stability index (san1∆) came to 1.55 ± 0.057 and the protein stability index (ubr1∆) was determined as 1.75 ± 0.033.

For the sequence TDRESYPRLQDPSRELN [YCS4], the protein stability index was 3.14 ± 0.05 (doa10∆), 3.19 ± 0.043 (pdr5∆), 3.23 ± 0.034 (san1∆) and 3.09 ± 0.052 (ubr1∆).

As for NLRRHSDIVLDKKVTLI [SIN4], the protein stability index was 2.47 ± 0.05 (doa10∆), 3.05 ± 0.042 (pdr5∆), 2.87 ± 0.034 (san1∆) and 2.68 ± 0.038 (ubr1∆).

As for QSKKLIEEKLSSFSKKT [YIL149C/MLP2], the protein stability index stood at 2.9 ± 0.056 (doa10∆), 3 ± 0.049 (pdr5∆), 2.98 ± 0.053 (san1∆) and 3.02 ± 0.045 (ubr1∆).

As to PLLSLDVTPISMFGSDQ [RPN4], the protein stability index turned out to be 2.75 ± 0.12 (doa10∆), 2.79 ± 0.18 (pdr5∆), 3.12 ± 0.13 (san1∆) and 3.18 ± 0.17 (ubr1∆).

LQRASSKMGAPWCVKPE [ITC1]: the protein stability index (doa10∆) came to 3.14 ± 0.089, the protein stability index (pdr5∆) came out at 3.29 ± 0.078, the protein stability index (san1∆) was 3.33 ± 0.055 and the protein stability index (ubr1∆) was 3.27 ± 0.066.

Regarding EREPVPLGILHIPICVT [RRP45], the protein stability index was 1.81 ± 0.077 (doa10∆), 1.88 ± 0.06 (pdr5∆), 1.47 ± 0.19 (san1∆) and 1.95 ± 0.059 (ubr1∆).
